{"source": "patent US20090318350A1", "about": "“PAN-HER ANTAGONISTS AND METHODS OF USE” (priority 2006, published 2009)", "key": {"HER5 cells [1]": {"tested_on": "HER5 cells", "settings": "cited from earlier work"}, "Her-3": {"target": "Her-3 (Homo sapiens, UniProt P21860)", "sequence (P21860 20-1342)": "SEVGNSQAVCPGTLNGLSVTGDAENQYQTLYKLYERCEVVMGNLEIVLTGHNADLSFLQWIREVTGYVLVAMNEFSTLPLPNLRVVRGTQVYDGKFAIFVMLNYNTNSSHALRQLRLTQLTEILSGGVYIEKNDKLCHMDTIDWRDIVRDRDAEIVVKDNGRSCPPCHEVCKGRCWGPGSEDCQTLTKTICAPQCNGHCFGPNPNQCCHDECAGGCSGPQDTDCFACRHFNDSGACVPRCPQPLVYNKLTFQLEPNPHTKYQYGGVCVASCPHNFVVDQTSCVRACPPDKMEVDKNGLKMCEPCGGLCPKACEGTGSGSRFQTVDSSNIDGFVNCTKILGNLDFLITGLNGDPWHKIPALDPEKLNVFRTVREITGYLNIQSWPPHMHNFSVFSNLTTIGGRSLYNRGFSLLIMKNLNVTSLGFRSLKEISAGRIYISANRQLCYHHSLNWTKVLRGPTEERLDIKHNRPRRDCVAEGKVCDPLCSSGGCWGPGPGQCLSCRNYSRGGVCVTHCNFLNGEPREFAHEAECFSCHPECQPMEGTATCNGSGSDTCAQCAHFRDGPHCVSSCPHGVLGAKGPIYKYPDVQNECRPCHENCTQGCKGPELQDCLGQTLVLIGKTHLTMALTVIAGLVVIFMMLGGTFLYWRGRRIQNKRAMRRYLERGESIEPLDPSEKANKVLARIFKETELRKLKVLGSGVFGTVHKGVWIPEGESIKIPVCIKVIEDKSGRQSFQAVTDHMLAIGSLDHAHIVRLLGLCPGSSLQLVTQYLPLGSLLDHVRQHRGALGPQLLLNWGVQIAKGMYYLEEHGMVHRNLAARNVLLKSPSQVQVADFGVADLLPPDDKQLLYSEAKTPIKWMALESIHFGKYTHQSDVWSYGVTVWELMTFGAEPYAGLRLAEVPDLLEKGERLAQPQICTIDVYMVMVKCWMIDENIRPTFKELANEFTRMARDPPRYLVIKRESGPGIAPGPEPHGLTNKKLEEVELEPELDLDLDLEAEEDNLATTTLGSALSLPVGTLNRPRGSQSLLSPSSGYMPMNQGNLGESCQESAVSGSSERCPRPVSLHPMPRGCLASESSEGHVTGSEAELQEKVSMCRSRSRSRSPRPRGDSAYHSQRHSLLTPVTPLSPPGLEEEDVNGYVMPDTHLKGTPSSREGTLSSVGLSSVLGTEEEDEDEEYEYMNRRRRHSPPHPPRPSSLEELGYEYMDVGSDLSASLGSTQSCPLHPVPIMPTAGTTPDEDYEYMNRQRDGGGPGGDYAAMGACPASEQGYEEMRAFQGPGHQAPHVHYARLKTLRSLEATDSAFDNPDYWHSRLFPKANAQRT", "settings": "particularly for Her-3; cited from earlier work"}, "MCF-7 cells [2]": {"tested_on": "MCF-7 cells", "settings": "stated as known; cited from earlier work"}, "HER5 cells [3]": {"tested_on": "HER5 cells", "experiment": "Cell proliferation assay (WST-1), EGF dependent HER5 cells", "type": "cell-based, mouse", "settings": "48 hour proliferation, phage fusion or purified protein as labelled, read-out: Calculated cell proliferation (EC50)", "procedure": "(§1) Phage-fusion particles displaying ligand variants were evaluated for their ability to stimulate cell proliferation in the cell proliferation assay described herein in both an EGF dependent cell line, HER5 and a heregulin dependent cell line, MCF-7.\nThe HER5 cell line, a murine fibroblast line (derived from the NR-6 line; mouse fibroblast cells that overexpress human EGFR) that has been stably transfected to express the human EGF receptor was provided by Dr. M. C. Hung (MD Anderson Cancer Center).\nStock cultures of HER5 were propagated in D-MEM/F12 medium containing 10% fetal bovine serum, 100 units/ml of penicillin and 100 ug/ml of streptomycin in a water-jacketed incubator at 37° C. in a humidified 5% CO2 atmosphere.\nFor HER5 proliferation assays, the cells were changed into DMEM/F12 without serum for 24 hours. Cells were then trypsinized and suspended at 1E5 cells/ml. Serial dilutions of EGF (PeproTech, Rocky Hill, N.J.), and HER ligand polypeptide variants were prepared in serum-free DMEM/F12 at 2-fold the final concentration and plated into the wells of 96-well plates. […] Cell proliferation was determined by addition of 10 ul/well of WST-1 Cell Proliferation Reagent (Roche Applied Sciences, Indianapolis, Ind.) for the last three hours of the proliferation period. […] The amount of formazan was measured at 450 nm using a microplate reader (Dynex Technologies) with MRX Revelation software."}, "MCF-7 cells [4]": {"tested_on": "MCF-7 cells", "experiment": "Cell proliferation assay (WST-1), heregulin dependent MCF-7 cells", "type": "cell-based, human", "settings": "72 hours, phage fusion or purified protein as labelled, read-out: Calculated cell proliferation (EC50)", "procedure": "as §1\nMCF-7 cells (human breast cancer cell lines that express HER2 and HER3) were obtained from the American Type Culture Collection (ATCC). Stock cultures of MCF-7 were maintained in Eagle's MEM supplemented with 1% ITS-X (Invitrogen) and 10% fetal bovine serum.\nFor proliferation assays, MCF-7 cells were transferred to serum-free medium (SFM) for 24 hours and then trypsinized and suspended at 10^5 cells/mL in SFM. Fifty microliters of cell suspension (5000 cells) were plated per well in 96 well microtiter plates. Serial dilutions of HER ligands or mutant proteins were prepared at twice the final concentration in SFM and 50 ul was added to wells, bringing the final volume to 100 ul at the desired final concentration. Plates were incubated for 72 hours at 37 C in a humidified 5% CO2 atmosphere. Cell proliferation was determined by addition of 10 ul/well of WST-1 Cell Proliferation Reagent (Roche Applied Sciences, Indianapolis, Ind.) for the last three hours of the proliferation period."}}, "data": [{"molecule": "T1ER41D: T1E with arginine of position 41 replaced by aspartate (protein) VVSHFNDCPLSHDGYCLHDGVCMYIEALDKYACNCVVGYIGEDCQYRDLKWWELRAETVESCLAKPHTENSFTNVWKDDKTLDRYANYEGCLWNATGVVVCTGDETQCYGTWVPIGLAIPENEGGGSEGGGSEGGGSEGGGTKPPEYGDTPIPGYTYINPLDGTYPPGTEQNPANPNPSLEESQPLNTFMFQNNRFRNRQGALTVYTGTVTQGTDPVKTYYQYTPVSSKAMYDAYWNGKFRDCAFHSGFNEDPFVCEYQGQSSDLPQPPVNAGGGSGGGSGGGSEGGGSEGGGSEGGGSEGGGSGGGSGSGDFDYEKMANANKGAMTENADENALQSDAKGKLDSVATDYGAAIDGFIGDVSGLANGNGATGDFAGSNSQMAQVGDGDNSPLMNNFRQYLPSLPQSVECRPFVFSAGKPYEFSIDCDKINLFRGVFAFLLYVATFMYVFSTFANILRNKES", "values": [{"measurement": "stimulation of cell proliferation in EGFR-dependent HER5 cells", "setting": "HER5 cells [1]; isolated ligand variants, previously demonstrated", "result": "greatly attenuated activity"}]}, {"molecule": "EGFwrs: EGF variant, residues 2 and 3 replaced with W and R, N-terminus NWRSE (protein) HHHHHHIEGRNWRSECPLSHDGYCLHDGVCMYIEALDKYACNCWGYIGERCQYRDLKWWELR", "values": [{"measurement": "binding affinity", "setting": "Her-3", "result": "high binding affinity"}]}, {"molecule": "EGF (purified protein): human epidermal growth factor, 53 amino acid cytokine (PeproTech) (protein) HHHHHHIEGRNSDSECPLSHDGYCLHDGVCMYIEALDKYACNCWGYIGERCQYRDLKWWELR", "values": [{"measurement": "stimulation of HER5 cells", "setting": "HER5 cells [1]; stated as known", "result": "can be stimulated"}, {"measurement": "stimulation of MCF-7 cells", "setting": "MCF-7 cells [2]", "result": "not"}, {"measurement": "EC50", "setting": "HER5 cells [3]", "result": 1.15, "unit": "nM"}]}, {"molecule": "Heregulin (purified protein): heregulin, native HER3/HER4 ligand, purified protein (protein) SHLVKCAEKEKTFCVNGGECFMVKDLSNPSRYLCKCPNEFTGDRCQNYVMASFYKHLGIEFMEAEELY", "values": [{"measurement": "stimulation of MCF-7 cells", "setting": "MCF-7 cells [2]", "result": "can be stimulated"}, {"measurement": "EC50", "setting": "MCF-7 cells [4]", "result": 6.15, "unit": "nM"}]}]}
